Source: PMC11229321 (Nucleic Acids Research, 2024)
Each block holds one molecule with its values, some of them ahead of it.

Key:
YejK(Δ134–147) (E. coli) = YejK(Δ134–147) (E. coli) (UniProt P33920); assay: SEC
SEC = biological target: the molecule itself; assay: SEC
cross-linking = biological target: the molecule itself; assay: cross-linking
[1] = biological target: T1, YejK C-trunc, YejK(1-290) (Escherichia coli, UniProt P33920 1-290, del291-335); assay: fluorescence polarization
T1 sequence: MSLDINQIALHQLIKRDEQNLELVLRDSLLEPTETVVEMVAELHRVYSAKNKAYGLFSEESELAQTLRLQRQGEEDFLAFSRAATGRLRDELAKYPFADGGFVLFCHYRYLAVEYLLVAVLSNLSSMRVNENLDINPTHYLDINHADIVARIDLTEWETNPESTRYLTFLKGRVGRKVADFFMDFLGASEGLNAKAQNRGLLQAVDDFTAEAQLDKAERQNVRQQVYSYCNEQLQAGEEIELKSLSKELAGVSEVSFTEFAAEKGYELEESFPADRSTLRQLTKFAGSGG

YejK(R276A-R280A-K284A) = biological target: T2, YejK(R276A-R280A-K284A) (Escherichia coli, UniProt P33920 1-335, R276A;R280A;K284A); assay: fluorescence polarization
T2 sequence: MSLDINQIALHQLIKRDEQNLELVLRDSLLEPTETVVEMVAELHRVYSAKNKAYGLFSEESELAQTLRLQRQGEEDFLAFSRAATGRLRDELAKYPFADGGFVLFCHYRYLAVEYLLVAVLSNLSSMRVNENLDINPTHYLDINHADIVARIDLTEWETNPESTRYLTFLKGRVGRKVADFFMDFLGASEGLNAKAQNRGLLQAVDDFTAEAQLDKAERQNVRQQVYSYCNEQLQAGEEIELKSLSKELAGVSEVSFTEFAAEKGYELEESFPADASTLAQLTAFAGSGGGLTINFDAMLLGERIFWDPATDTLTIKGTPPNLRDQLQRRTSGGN

YejK = biological target: T3, YejK (Escherichia coli, UniProt P33920 1-335); assay: fluorescence polarization
T3 sequence: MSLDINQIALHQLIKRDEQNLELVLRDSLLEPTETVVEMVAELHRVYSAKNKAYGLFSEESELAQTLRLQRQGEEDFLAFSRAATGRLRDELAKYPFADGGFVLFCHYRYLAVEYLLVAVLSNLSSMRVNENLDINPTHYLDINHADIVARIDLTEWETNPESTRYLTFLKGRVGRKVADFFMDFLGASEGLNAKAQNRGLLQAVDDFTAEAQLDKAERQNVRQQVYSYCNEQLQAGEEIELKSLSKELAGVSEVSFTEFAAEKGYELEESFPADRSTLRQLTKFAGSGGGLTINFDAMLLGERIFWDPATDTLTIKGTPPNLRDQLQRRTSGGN

stoichiometry N (YejK(Δ134–147) (E. coli)): 2
Molecule: YejK(Δ134–147) (from UniProt P33920 1-335) (natural protein)

B1: E. coli YejK protein (WT) (natural protein, UniProt P33920 1-335, looked up)
chain: MSLDINQIALHQLIKRDEQNLELVLRDSLLEPTETVVEMVAELHRVYSAKNKAYGLFSEESELAQTLRLQRQGEEDFLAFSRAATGRLRDELAKYPFADGGFVLFCHYRYLAVEYLLVAVLSNLSSMRVNENLDINPTHYLDINHADIVARIDLTEWETNPESTRYLTFLKGRVGRKVADFFMDFLGASEGLNAKAQNRGLLQAVDDFTAEAQLDKAERQNVRQQVYSYCNEQLQAGEEIELKSLSKELAGVSEVSFTEFAAEKGYELEESFPADRSTLRQLTKFAGSGGGLTINFDAMLLGERIFWDPATDTLTIKGTPPNLRDQLQRRTSGGN
stoichiometry N (SEC): 2

B2: YejK(R276A-R280A-K284A) (natural protein, E. coli, UniProt P33920 1-335, looked up)
chain: MSLDINQIALHQLIKRDEQNLELVLRDSLLEPTETVVEMVAELHRVYSAKNKAYGLFSEESELAQTLRLQRQGEEDFLAFSRAATGRLRDELAKYPFADGGFVLFCHYRYLAVEYLLVAVLSNLSSMRVNENLDINPTHYLDINHADIVARIDLTEWETNPESTRYLTFLKGRVGRKVADFFMDFLGASEGLNAKAQNRGLLQAVDDFTAEAQLDKAERQNVRQQVYSYCNEQLQAGEEIELKSLSKELAGVSEVSFTEFAAEKGYELEESFPADASTLAQLTAFAGSGGGLTINFDAMLLGERIFWDPATDTLTIKGTPPNLRDQLQRRTSGGN
stoichiometry N (cross-linking): 2

B3: YejK(R173A-R176A-K177A) (natural protein, E. coli, UniProt P33920 1-335, looked up)
chain: MSLDINQIALHQLIKRDEQNLELVLRDSLLEPTETVVEMVAELHRVYSAKNKAYGLFSEESELAQTLRLQRQGEEDFLAFSRAATGRLRDELAKYPFADGGFVLFCHYRYLAVEYLLVAVLSNLSSMRVNENLDINPTHYLDINHADIVARIDLTEWETNPESTRYLTFLKGAVGAAVADFFMDFLGASEGLNAKAQNRGLLQAVDDFTAEAQLDKAERQNVRQQVYSYCNEQLQAGEEIELKSLSKELAGVSEVSFTEFAAEKGYELEESFPADRSTLRQLTKFAGSGGGLTINFDAMLLGERIFWDPATDTLTIKGTPPNLRDQLQRRTSGGN
stoichiometry N (cross-linking): 2

B4: AT-rich 20-mer (dsDNA)
DNA 1: ATTATTAATTAATTAATAAT
DNA 2: ATTATTAATTAATTAATAAT
binding result [1]: no binding
Kd (YejK(R276A-R280A-K284A)): 40 ± 5.6 µM
Kd (YejK): 6.8 ± 0.5 µM
